From publication PMC12577854, “CsUGT89A2 enhances tea plant resistance to Toxoptera aurantia by mediating flavonoid glycosides biosynthesis” (Horticulture Research, 2025)

Legend:
Experiment in all cases: HPLC assay of 7-O-glucoside formation
Format in all cases: biochemical, Camellia sinensis
Conditions in all cases: 2.5 mM UDP-glucose, pH 8.0, 40°C
[1] = test system: T1, O=c1c(O)c(-c2ccc(O)c(O)c2)oc2cc(O)cc(O)c12
T1 construct: Ni-TED purified (methods say amylose resin)

[2] = test system: T2, O=c1c(O)c(-c2ccc(O)cc2)oc2cc(O)cc(O)c12
T2 construct: Ni-TED purified (methods say amylose resin)

[3] = test system: T3, O=c1cc(-c2ccc(O)c(O)c2)oc2cc(O)cc(O)c12
T3 construct: Ni-TED purified (methods say amylose resin)

[4] = test system: T4, O=c1cc(-c2ccc(O)cc2)oc2cc(O)cc(O)c12
T4 construct: Ni-TED purified (methods say amylose resin)

## rCsUGT89A2 (CsUGT89A2, LOC114303213) (Camellia sinensis var. sinensis)
[1]
  Km: 106.0 µM
[2]
  Km: 164.5 µM
[3]
  Km: 76.4 µM
[4]
  Km: 46.3 µM
